Measured values as given in paper PMC5459593 (2017).

What was measured:
[1] = molecular target: T1, Notch1(8-12) EGF8-12 (Rattus norvegicus, UniProt Q07008); assay: SPR
T1 chain: LLCLT

[2] = molecular target: T2, Notch1(11-12) EGF11-12 (Rattus norvegicus, UniProt Q07008); assay: SPR
T2 chain: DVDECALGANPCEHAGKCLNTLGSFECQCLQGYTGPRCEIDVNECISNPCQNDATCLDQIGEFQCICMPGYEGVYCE

Kd [1]: 9.7 µM | Kd [2]: 12.8 µM
B1: DLL4(N-3) N-EGF3 (protein)
chain: SGIFQLRLQEFANERGMLANGRPCEPGCRTFFRICLKHYQATFSEGPCTFGNVSTPVLGTNSFVIRDKNSGSGRNPLQLPFNFTWPGTFSLNIQAWHTPGDDLRPETSPGNSLISQIIIQGSLAVGKNWKSDEQNNTLTRLRYSYRVVCSDNYYGDSCSRLCKKRDDHFGHYECQPDGSLSCLPGWTGKYCDQPICLSGCHEQNGYCSKPDECNCRPGWQGPLCNECIPHNGCRHGTCTIPWQCACDEGWGGLFCDQDLNYCTHHSPCKNGSTCSNSGPRGYTCTCLPGYTGEHCE
